Results published in paper PMC11901735 (Molecules, 2025).

Tests used:
[1] = target: Ex-4-C40, exendin-4 with an additional Cys at the C-terminus (UniProt P26349 48-87); test: SPR; Biacore T200; recombinant human GLP-1R (0.5 μM) immobilized on a CM5 sensor chip; peptides injected at four-fold serial dilutions (0, 0.1-100 nM); n = 3; 1:1 interaction model; conditions: both partners purified
exendin-4 = exendin-4 (UniProt P26349 48-87); test: as above; conditions: both partners purified

B1: Recombinant human GLP-1R protein (receptor)
chain: RPQGATVSLWETVQKWREYRRQCQRSLTEDPPPATDLFCNRTFDEYACWPDGEPGSFVNVSCPWYLPWASSVPQGHVYRFCTAEGLWLQKDNSSLPWRDLSECEESKRGERSSPEEQLLFLY
modifications: Limits are not printed. The Sino Biological H02H catalogue suffix suggests a soluble extracellular domain with a C-terminal human Fc (left out). Residues 24-145 are the usual ectodomain construct …
Kd [1]: 36 nM
Kd (exendin-4): 33.6 nM
